Test results: PMC7950113

Assays:
Test in all cases: Co-AP mass spectrometry with TMT quantification
Settings in all cases: TMT intensities of interactors normalized to Tg intensities, read off a plot
[1] = molecular target: OS9 endoplasmic reticulum lectin [human (endogenous in HEK293 cells)]
[2] = molecular target: calnexin [human (endogenous in HEK293 cells)]
[3] = molecular target: calreticulin [human (endogenous in HEK293 cells)]
[4] = molecular target: glucosidase II alpha subunit [human (endogenous in HEK293 cells)]
[5] = molecular target: SEL1L adaptor subunit of ERAD E3 ubiquitin ligase [human (endogenous in HEK293 cells)]
[6] = molecular target: ER degradation enhancing alpha-mannosidase-like 3 [human (endogenous in HEK293 cells)]
[7] = molecular target: oligosaccharyl transferase complex catalytic subunit B [human (endogenous in HEK293 cells)]
[8] = molecular target: RAD-dependent oxidoreductase domain containing 2 [human (endogenous in HEK293 cells)]
[9] = molecular target: UDP-glucose glycoprotein glucosyltansferase 1 [human (endogenous in HEK293 cells)]
[10] = molecular target: protein disulfide isomerase family A member 3 [human (endogenous in HEK293 cells)]

FLAG-tagged thyroglobulin, WT mutant L2284P [human] / OS9 endoplasmic reticulum lectin [human (endogenous in HEK293 cells)] chain 1 L2265P
screen value [1]: 0.57 log2

FLAG-tagged thyroglobulin, WT mutant L2284P [human] / calnexin [human (endogenous in HEK293 cells)] chain 1 L2265P
screen value [2]: 0.13 log2

FLAG-tagged thyroglobulin, WT mutant L2284P [human] / calreticulin [human (endogenous in HEK293 cells)] chain 1 L2265P
screen value [3]: 0.5 log2

FLAG-tagged thyroglobulin, WT mutant A2234D [human] / calnexin [human (endogenous in HEK293 cells)] chain 1 A2215D
screen value [2]: -0.1 log2

FLAG-tagged thyroglobulin, WT mutant A2234D [human] / glucosidase II alpha subunit [human (endogenous in HEK293 cells)] chain 1 A2215D
screen value [4]: 0.2 log2

FLAG-tagged thyroglobulin, WT mutant A2234D [human] / SEL1L adaptor subunit of ERAD E3 ubiquitin ligase [human (endogenous in HEK293 cells)] chain 1 A2215D
screen value [5]: 0.57 log2

FLAG-tagged thyroglobulin, WT mutant L2284P [human] / glucosidase II alpha subunit [human (endogenous in HEK293 cells)] chain 1 L2265P
screen value [4]: 0.26 log2

FLAG-tagged thyroglobulin, WT mutant C1264R [human] / ER degradation enhancing alpha-mannosidase-like 3 [human (endogenous in HEK293 cells)] chain 1 C1245R
screen value [6]: 0.07 log2

FLAG-tagged thyroglobulin, WT mutant L2284P [human] / oligosaccharyl transferase complex catalytic subunit B [human (endogenous in HEK293 cells)] chain 1 L2265P
screen value [7]: 0.07 log2

FLAG-tagged thyroglobulin, WT mutant G2341R [human] / OS9 endoplasmic reticulum lectin [human (endogenous in HEK293 cells)] chain 1 G2322R
screen value [1]: 0.73 log2

FLAG-tagged thyroglobulin, WT mutant A2234D [human] / OS9 endoplasmic reticulum lectin [human (endogenous in HEK293 cells)] chain 1 A2215D
screen value [1]: 0.83 log2

FLAG-tagged thyroglobulin, WT mutant G2341R [human] / RAD-dependent oxidoreductase domain containing 2 [human (endogenous in HEK293 cells)] chain 1 G2322R
screen value [8]: 0.45 log2

FLAG-tagged thyroglobulin, WT mutant C1264R [human] / calnexin [human (endogenous in HEK293 cells)] chain 1 C1245R
screen value [2]: -0.24 log2

FLAG-tagged thyroglobulin, WT mutant L2284P [human] / UDP-glucose glycoprotein glucosyltansferase 1 [human (endogenous in HEK293 cells)] chain 1 L2265P
screen value [9]: 0.58 log2

FLAG-tagged thyroglobulin, WT mutant C1264R [human] / protein disulfide isomerase family A member 3 [human (endogenous in HEK293 cells)] chain 1 C1245R
screen value [10]: 0.35 log2

FLAG-tagged thyroglobulin, WT mutant A2234D [human] / RAD-dependent oxidoreductase domain containing 2 [human (endogenous in HEK293 cells)] chain 1 A2215D
screen value [8]: 0.67 log2

FLAG-tagged thyroglobulin, WT mutant C1264R [human] / UDP-glucose glycoprotein glucosyltansferase 1 [human (endogenous in HEK293 cells)] chain 1 C1245R
screen value [9]: 0.25 log2

FLAG-tagged thyroglobulin, WT mutant L2284P [human] / SEL1L adaptor subunit of ERAD E3 ubiquitin ligase [human (endogenous in HEK293 cells)] chain 1 L2265P
screen value [5]: 0.49 log2

FLAG-tagged thyroglobulin, WT mutant G2341R [human] / calnexin [human (endogenous in HEK293 cells)] chain 1 G2322R
screen value [2]: 0.06 log2

FLAG-tagged thyroglobulin, WT mutant C1264R [human] / SEL1L adaptor subunit of ERAD E3 ubiquitin ligase [human (endogenous in HEK293 cells)] chain 1 C1245R
screen value [5]: 0.43 log2

FLAG-tagged thyroglobulin, WT mutant C1264R [human] / RAD-dependent oxidoreductase domain containing 2 [human (endogenous in HEK293 cells)] chain 1 C1245R
screen value [8]: 0.42 log2

FLAG-tagged thyroglobulin, WT mutant G2341R [human] / ER degradation enhancing alpha-mannosidase-like 3 [human (endogenous in HEK293 cells)] chain 1 G2322R
screen value [6]: 0.09 log2

FLAG-tagged thyroglobulin, WT mutant G2341R [human] / protein disulfide isomerase family A member 3 [human (endogenous in HEK293 cells)] chain 1 G2322R
screen value [10]: 0.55 log2

FLAG-tagged thyroglobulin, WT mutant A2234D [human] / ER degradation enhancing alpha-mannosidase-like 3 [human (endogenous in HEK293 cells)] chain 1 A2215D
screen value [6]: 0.2 log2

FLAG-tagged thyroglobulin, WT mutant G2341R [human] / SEL1L adaptor subunit of ERAD E3 ubiquitin ligase [human (endogenous in HEK293 cells)] chain 1 G2322R
screen value [5]: 0.44 log2

FLAG-tagged thyroglobulin, WT mutant L2284P [human] / RAD-dependent oxidoreductase domain containing 2 [human (endogenous in HEK293 cells)] chain 1 L2265P
screen value [8]: 0.58 log2

FLAG-tagged thyroglobulin, WT mutant C1264R [human] / oligosaccharyl transferase complex catalytic subunit B [human (endogenous in HEK293 cells)] chain 1 C1245R
screen value [7]: -0.21 log2

FLAG-tagged thyroglobulin, WT mutant G2341R [human] / glucosidase II alpha subunit [human (endogenous in HEK293 cells)] chain 1 G2322R
screen value [4]: 0.36 log2

FLAG-tagged thyroglobulin, WT mutant L2284P [human] / protein disulfide isomerase family A member 3 [human (endogenous in HEK293 cells)] chain 1 L2265P
screen value [10]: 0.6 log2

FLAG-tagged thyroglobulin, WT mutant C1264R [human] / OS9 endoplasmic reticulum lectin [human (endogenous in HEK293 cells)] chain 1 C1245R
screen value [1]: 0.39 log2

FLAG-tagged thyroglobulin, WT mutant G2341R [human] / UDP-glucose glycoprotein glucosyltansferase 1 [human (endogenous in HEK293 cells)] chain 1 G2322R
screen value [9]: 0.64 log2

FLAG-tagged thyroglobulin, WT mutant L2284P [human] / ER degradation enhancing alpha-mannosidase-like 3 [human (endogenous in HEK293 cells)] chain 1 L2265P
screen value [6]: 0.2 log2

FLAG-tagged thyroglobulin, WT mutant A2234D [human] / oligosaccharyl transferase complex catalytic subunit B [human (endogenous in HEK293 cells)] chain 1 A2215D
screen value [7]: -0.11 log2

FLAG-tagged thyroglobulin, WT mutant G2341R [human] / oligosaccharyl transferase complex catalytic subunit B [human (endogenous in HEK293 cells)] chain 1 G2322R
screen value [7]: 0.26 log2

FLAG-tagged thyroglobulin, WT mutant A2234D [human] / UDP-glucose glycoprotein glucosyltansferase 1 [human (endogenous in HEK293 cells)] chain 1 A2215D
screen value [9]: 0.38 log2

FLAG-tagged thyroglobulin, WT mutant C1264R [human] / glucosidase II alpha subunit [human (endogenous in HEK293 cells)] chain 1 C1245R
screen value [4]: 0.16 log2

FLAG-tagged thyroglobulin, WT mutant A2234D [human] / protein disulfide isomerase family A member 3 [human (endogenous in HEK293 cells)] chain 1 A2215D
screen value [10]: 0.16 log2
